Values of other authors in patent publication US20180147231A1, “METHOD FOR TREATMENT AND PROGNOSIS OF COLORECTAL CANCER” (Oxford University Innovation Limited, priority 2015, published 2018).

T1: IL-22R complex (Homo sapiens, UniProt Q08334+Q8N6P7)
T1 sequence (Q8N6P7 16-228 limits assumed): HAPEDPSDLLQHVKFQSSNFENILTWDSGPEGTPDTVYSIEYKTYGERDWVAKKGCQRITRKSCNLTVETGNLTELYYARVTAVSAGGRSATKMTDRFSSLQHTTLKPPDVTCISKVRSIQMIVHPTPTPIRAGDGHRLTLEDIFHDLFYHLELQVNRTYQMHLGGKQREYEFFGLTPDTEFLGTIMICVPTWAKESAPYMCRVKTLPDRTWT
T1 sequence (Q08334 20-220 limits assumed): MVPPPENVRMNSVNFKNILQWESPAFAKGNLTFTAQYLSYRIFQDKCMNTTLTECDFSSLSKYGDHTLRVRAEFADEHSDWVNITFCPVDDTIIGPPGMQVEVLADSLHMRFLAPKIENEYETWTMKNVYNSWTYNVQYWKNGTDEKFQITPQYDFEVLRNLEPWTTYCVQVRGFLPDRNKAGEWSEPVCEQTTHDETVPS

T2: IL-22RA1 subunit of the receptor (Homo sapiens, UniProt Q8N6P7)
T2 sequence (Q8N6P7 16-574): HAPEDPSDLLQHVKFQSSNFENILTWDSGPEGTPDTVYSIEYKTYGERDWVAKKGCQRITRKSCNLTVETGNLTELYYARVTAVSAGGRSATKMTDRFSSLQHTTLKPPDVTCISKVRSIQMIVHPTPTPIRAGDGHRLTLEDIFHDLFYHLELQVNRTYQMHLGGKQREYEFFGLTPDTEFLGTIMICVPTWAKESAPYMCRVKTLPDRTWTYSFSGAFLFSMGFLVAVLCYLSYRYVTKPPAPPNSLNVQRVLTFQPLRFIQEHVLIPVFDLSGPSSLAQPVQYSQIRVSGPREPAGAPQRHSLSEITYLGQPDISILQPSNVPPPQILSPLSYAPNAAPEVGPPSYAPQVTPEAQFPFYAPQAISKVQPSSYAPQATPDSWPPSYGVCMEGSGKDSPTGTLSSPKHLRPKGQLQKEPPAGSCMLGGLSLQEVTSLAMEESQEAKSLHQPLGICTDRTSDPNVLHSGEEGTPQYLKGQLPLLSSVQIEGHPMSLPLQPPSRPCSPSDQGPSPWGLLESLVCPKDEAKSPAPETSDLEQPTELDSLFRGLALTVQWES


biological target: T1, IL-22R complex; conditions: variant of IL-22 (SEQ ID NO: 5) compared with wild type; cited from earlier work

Molecule | Binding to the IL-22R complex
N54G: reduced-function variant of IL-22 (SEQ ID NO: 5) in which N54 is mutated from asparagine to glutamine (protein, listed as Homo sapiens) MAALQKSVSSFLMGTLATSCLLLLALLVQGGAAAPISSHCRLDKSNFQQPYITGRTFMLAKEASLADNNTDVRLIGEKLFHGVSMSERCYLMKQVLNFTLEEVLFPQSDRFQPYMQEVVPFLARLSNRLSTCHIEGDDLHIQRNVQKLKDTVKKLGESGEIKAIGELDLLFMSLRNACI | reduce binding
N54A: variant of IL-22 (SEQ ID NO: 5) in which N54 is mutated to alanine (protein, listed as Homo sapiens) MAALQKSVSSFLMGTLATSCLLLLALLVQGGAAAPISSHCRLDKSNFQQPYITARTFMLAKEASLADNNTDVRLIGEKLFHGVSMSERCYLMKQVLNFTLEEVLFPQSDRFQPYMQEVVPFLARLSNRLSTCHIEGDDLHIQRNVQKLKDTVKKLGESGEIKAIGELDLLFMSLRNACI | reduce binding
E117A: variant of IL-22 (SEQ ID NO: 5) in which E117 is mutated to alanine (protein, listed as Homo sapiens) MAALQKSVSSFLMGTLATSCLLLLALLVQGGAAAPISSHCRLDKSNFQQPYITNRTFMLAKEASLADNNTDVRLIGEKLFHGVSMSERCYLMKQVLNFTLEEVLFPQSDRFQPYMQAVVPFLARLSNRLSTCHIEGDDLHIQRNVQKLKDTVKKLGESGEIKAIGELDLLFMSLRNACI | reduce binding
F121A: variant of IL-22 (SEQ ID NO: 5) in which F121 is mutated to alanine (protein, listed as Homo sapiens) MAALQKSVSSFLMGTLATSCLLLLALLVQGGAAAPISSHCRLDKSNFQQPYITNRTFMLAKEASLADNNTDVRLIGEKLFHGVSMSERCYLMKQVLNFTLEEVLFPQSDRFQPYMQEVVPALARLSNRLSTCHIEGDDLHIQRNVQKLKDTVKKLGESGEIKAIGELDLLFMSLRNACI | reduce binding
R55A: variant of IL-22 (SEQ ID NO: 5) in which R55 is mutated to alanine (protein, listed as Homo sapiens) MAALQKSVSSFLMGTLATSCLLLLALLVQGGAAAPISSHCRLDKSNFQQPYITNATFMLAKEASLADNNTDVRLIGEKLFHGVSMSERCYLMKQVLNFTLEEVLFPQSDRFQPYMQEVVPFLARLSNRLSTCHIEGDDLHIQRNVQKLKDTVKKLGESGEIKAIGELDLLFMSLRNACI | reduce binding
T56A: variant of IL-22 (SEQ ID NO: 5) in which T56 is mutated to alanine (protein, listed as Homo sapiens) MAALQKSVSSFLMGTLATSCLLLLALLVQGGAAAPISSHCRLDKSNFQQPYITNRAFMLAKEASLADNNTDVRLIGEKLFHGVSMSERCYLMKQVLNFTLEEVLFPQSDRFQPYMQEVVPFLARLSNRLSTCHIEGDDLHIQRNVQKLKDTVKKLGESGEIKAIGELDLLFMSLRNACI | reduce binding
Y51A: variant of IL-22 (SEQ ID NO: 5) in which Y51 is mutated to A (protein, listed as Homo sapiens) MAALQKSVSSFLMGTLATSCLLLLALLVQGGAAAPISSHCRLDKSNFQQPAITNRTFMLAKEASLADNNTDVRLIGEKLFHGVSMSERCYLMKQVLNFTLEEVLFPQSDRFQPYMQEVVPFLARLSNRLSTCHIEGDDLHIQRNVQKLKDTVKKLGESGEIKAIGELDLLFMSLRNACI | reduce binding

biological target: T2, IL-22RA1 subunit of the receptor; conditions: variant of IL-22 (SEQ ID NO: 5) compared with wild type; cited from earlier work

Molecule | Binding to the IL-22RA1 subunit of the receptor
K162A: variant of IL-22 (SEQ ID NO: 5) in which K162 is mutated to alanine (protein, listed as Homo sapiens) MAALQKSVSSFLMGTLATSCLLLLALLVQGGAAAPISSHCRLDKSNFQQPYITNRTFMLAKEASLADNNTDVRLIGEKLFHGVSMSERCYLMKQVLNFTLEEVLFPQSDRFQPYMQEVVPFLARLSNRLSTCHIEGDDLHIQRNVQKLKDTVKKLGESGEIAAIGELDLLFMSLRNACI | reduce binding
V72A: variant of IL-22 (SEQ ID NO: 5) in which V72 is mutated to A (protein, listed as Homo sapiens) MAALQKSVSSFLMGTLATSCLLLLALLVQGGAAAPISSHCRLDKSNFQQPYITNRTFMLAKEASLADNNTDARLIGEKLFHGVSMSERCYLMKQVLNFTLEEVLFPQSDRFQPYMQEVVPFLARLSNRLSTCHIEGDDLHIQRNVQKLKDTVKKLGESGEIKAIGELDLLFMSLRNACI | reduce binding
D67A: variant of IL-22 (SEQ ID NO: 5) in which D67 is mutated to alanine (protein, listed as Homo sapiens) MAALQKSVSSFLMGTLATSCLLLLALLVQGGAAAPISSHCRLDKSNFQQPYITNRTFMLAKEASLAANNTDVRLIGEKLFHGVSMSERCYLMKQVLNFTLEEVLFPQSDRFQPYMQEVVPFLARLSNRLSTCHIEGDDLHIQRNVQKLKDTVKKLGESGEIKAIGELDLLFMSLRNACI | reduce binding
I161A: variant of IL-22 (SEQ ID NO: 5) in which I161 is mutated to alanine (protein, listed as Homo sapiens) MAALQKSVSSFLMGTLATSCLLLLALLVQGGAAAPISSHCRLDKSNFQQPYITNRTFMLAKEASLADNNTDVRLIGEKLFHGVSMSERCYLMKQVLNFTLEEVLFPQSDRFQPYMQEVVPFLARLSNRLSTCHIEGDDLHIQRNVQKLKDTVKKLGESGEAKAIGELDLLFMSLRNACI | reduce binding
